In the experiment the test system is human HL60 cells. The experiment can be described thus: SWATH-MS proteomics, differential protein representation, akirin2 KO vs WT HL60 cells. In kind it is cell-based. How it is done: Total proteins were extracted from WT and akirin2 KO HL60 cells using the AllPrep DNA/RNA/Protein Mini Kit (Qiagen) and protein concentration was determined using the BCA Protein Assay with BSA (Sigma–Aldrich) as standard. Protein extracts (150 µg per sample, n=3 biological replicates) from each WT and KO cells were trypsin digested using the FASP Protein Digestion Kit (Expedeon Ltd., Abcam, Cambridge, U.K.) and sequencing grade trypsin (Promega, Madison, WI, U.S.A.) following manufacturer’s recommendations. The resulting peptides were finally desalted on to OMIX Pipette tips C18 (Agilent Technologies, Santa Clara, CA, U.S.A.), dried down and stored at −20 °C until mass spectrometry analysis. […] Three micrograms of each protein digest from the three biological replicates of WT and akirin2 KO HL60 cells were used for the generation of the reference spectral ion library as part of the SWATH-MS analysis.
Peptides were eluted in a 120-min gradient from 5 to 30% solvent B in solvent A followed by 15-min gradient from 30 to 60% solvent B in solvent A (solvent A: 0.1% formic acid in water, solvent B: 0.1% formic acid in acetonitrile) and directly injected into the mass spectrometer for analysis. For IDA experiments, the mass spectrometer was set to scanning full spectra (350–1400 m/z) using 250 ms accumulation time per spectrum, followed by up to 50 MS/MS scans (100–1500 m/z). Candidate ions with a charge state between +2 and +5 counts per second above a minimum threshold of 100 were isolated for fragmentation. One MS/MS spectrum was collected for 100 ms, before adding those precursor ions to the exclusion list for 15 s (mass spectrometer operated by Analyst TF 1.6, AB Sciex). Dynamic background subtraction was turned off. MS/MS analyses were recorded in high-sensitivity mode with rolling collision energy on and a collision energy spread of 5. For SWATH quantitative analysis, six independent samples (three replicates from WT and akirin2 KO HL60 cells, 5 µg each) were subjected to the cyclic DIA of mass spectra using the SWATH variable windows calculator (V 1.0, AB Sciex) and the SWATH acquisition method editor (AB Sciex), similar to established methods. […] For these experiments, a 50-ms survey scan (350–1400 m/z) was acquired at the beginning of each cycle, and SWATH–MS/MS spectra were collected from 100–1500 m/z for 70 ms at high-sensitivity mode, resulting in a cycle time of 3.6 s. Collision energy for each window was determined according to the calculation for a charge +2 ion-centered upon the window with a collision energy spread of 15. To create a spectral library of all the detectable peptides in the samples, the IDA MS raw files were combined and subjected to database search in unison using ProteinPilot software v. 5.0.1 (AB Sciex) with the Paragon algorithm. […] The detected protein threshold was set at 0.05. An independent false discovery rate (FDR) analysis, using the target–decoy approach provided by Protein Pilot (AB Sciex; https://sciex.com/products/software/proteinpilot-software), was used to assess the quality of identifications. Positive identifications were considered when identified proteins reached 1% of global FDR. […] Global normalization was performed according to the Total Area Sums (TAS) of all detected proteins in the samples. […] Heatmaps were prepared using the Heatmapper (http://www.heatmapper.ca/expression/) with average linkage and Euclidean distance measurement method.

Setting [1] is: Over-represented in KO, KO vs WT HL60 cells.
Where [2] appears, read: SWATH-MS, akirin2 KO vs WT HL60 cells, over-represented in KO.

B1: sp¦P60981¦DEST_HUMAN (protein, UniProt P60981 2-165, looked up)
Destrin: ASGVQVADEVCRIFYDMKVRKCSTPEEIKKRKKAVIFCLSADKKCIIVEEGKEILVGDVGVTITDPFKHFVGMLPEKDCRYALYDASFETKESRKEELMFFLWAPELAPLKSKMIYASSKDAIKKKFQGIKHECQANGPEDLNRACIAEKLGGSLIVAFEGCPV
On to B1, for which, under setting [1], the “Fold Change” value amounted to 1.321 and the “Log (Fold Change)” value is reported as 0.1208.

B2: sp¦O00154¦BACH_HUMAN (protein, UniProt O00154 1-380, looked up)
Cytosolic acyl coenzyme A …: MKLLARALRLCEFGRQASSRRLVAGQGCVGPRRGCCAPVQVVGPRADLPPCGACITGRIMRPDDANVAGNVHGGTILKMIEEAGAIISTRHCNSQNGERCVAALARVERTDFLSPMCIGEVAHVSAEITYTSKHSVEVQVNVMSENILTGAKKLTNKATLWYVPLSLKNVDKVLEVPPVVYSRQEQEEEGRKRYEAQKLERMETKWRNGDIVQPVLNPEPNTVSYSQSSLIHLVGPSDCTLHGFVHGGVTMKLMDEVAGIVAARHCKTNIVTASVDAINFHDKIRKGCVITISGRMTFTSNKSMEIEVLVDADPVVDSSQKRYRAASAFFTYVSLSQEGRSLPVPQLVPETEDEKKRFEEGKGRYLQMKAKRQGHAEPQP
Turning to B2, under setting [1], the “Fold Change” value is 1.305 and the “Log (Fold Change)” value amounted to 0.1157.

B3: sp¦P11279¦LAMP1_HUMAN (protein, UniProt P11279 29-417, looked up)
Lysosome-associated membrane …: AMFMVKNGNGTACIMANFSAAFSVNYDTKSGPKNMTFDLPSDATVVLNRSSCGKENTSDPSLVIAFGRGHTLTLNFTRNATRYSVQLMSFVYNLSDTHLFPNASSKEIKTVESITDIRADIDKKYRCVSGTQVHMNNVTVTLHDATIQAYLSNSSFSRGETRCEQDRPSPTTAPPAPPSPSPSPVPKSPSVDKYNVSGTNGTCLLASMGLQLNLTYERKDNTTVTRLLNINPNKTSASGSCGAHLVTLELHSEGTTVLLFQFGMNASSSRFFLQGIQLNTILPDARDPAFKAANGSLRALQATVGNSYKCNAEEHVRVTKAFSVNIFKVWVQAFKVEGGQFGSVEECLLDENSMLIPIAVGGALAGLVLIVLIAYLVGRKRSHAGYQTI
With B3, under setting [1], the “Fold Change” value came to 1.301 and the “Log (Fold Change)” value amounted to 0.1143.

B4: sp¦O14737¦PDCD5_HUMAN (protein, UniProt O14737 2-125, looked up)
Programmed cell death protein …: ADEELEALRRQRLAELQAKHGDPGDAAQQEAKHREAEMRNSILAQVLDQSARARLSNLALVKPEKTKAVENYLIQMARYGQLSEKVSEQGLIEILKKVSQQTEKTTTVKFNRRKVMDSDEDDDY
As to B4, under setting [1], the “Fold Change” value was 1.307 and the “Log (Fold Change)” value was 0.1162.

B5: Pre-rRNA-processing protein TSR1 homolog (protein, UniProt Q2NL82 1-804, looked up)
Pre-rRNA-processing protein …: MAAHRPGPLKQQNKAHKGGRHRGRGSAQRDGKGRLALKTLSKKVRKELSRVDQRHRASQLRKQKKEAVLAEKRQLGGKDGPPHQVLVVPLHSRISLPEAMQLLQDRDTGTVHLNELGNTQNFMLLCPRLKHRWFFTSARPGDLHVVLDMAKVADTILFLLDPLEGWDSTGDYCLSCLFAQGLPTYTLAVQGISGLPLKKQIDTRKKLSKAVEKRFPHDKLLLLDTQQEAGMLLRQLANQKQQHLAFRDRRAYLFAHAVDFVPSEENNLVGTLKISGYVRGQTLNVNRLLHIVGYGDFQMKQIDAPGDPFPLNPRGIKPQKDPDMAMEICATDAVDDMEEGLKVLMKADPGRQESLQAEVIPDPMEGEQTWPTEEELSEAKDFLKESSKVVKKVPKGTSSYQAEWILDGGSQSGGEGDEYEYDDMEHEDFMEEESQDESSEEEEEYETMTIGESVHDDLYDKKVDEEAEAKMLEKYKQERLEEMFPDEVDTPRDVAARIRFQKYRGLKSFRTSPWDPKENLPQDYARIFQFQNFTNTRKSIFKEVEEKEVEGAEVGWYVTLHVSEVPVSVVECFRQGTPLIAFSLLPHEQKMSVLNMVVRRDPGNTEPVKAKEELIFHCGFRRFRASPLFSQHTAADKHKLQRFLTADMALVATVYAPITFPPASVLLFKQKSNGMHSLIATGHLMSVDPDRMVIKRVVLSGHPFKIFTKMAVVRYMFFNREDVLWFKPVELRTKWGRRGHIKEPLGTHGHMKCSFDGKLKSQDTVLMNLYKRVFPKWTYDPYVPEPVPWLKSEISSTVPQGGME
Take B5: under setting [2], the “Fold Change” value amounted to 3.379 and the “Log (Fold Change)” value stood at 0.5288.

B6: Myristoylated alanine-rich C-kinase substrate (protein, UniProt P29966 2-332, looked up)
Myristoylated alanine-rich …: GAQFSKTAAKGEAAAERPGEAAVASSPSKANGQENGHVKVNGDASPAAAESGAKEELQANGSAPAADKEEPAAAGSGAASPSAAEKGEPAAAAAPEAGASPVEKEAPAEGEAAEPGSPTAAEGEAASAASSTSSPKAEDGATPSPSNETPKKKKKRFSFKKSFKLSGFSFKKNKKEAGEGGEAEAPAAEGGKDEAAGGAAAAAAEAGAASGEQAAAPGEEAAAGEEGAAGGDPQEAKPQEAAVAPEKPPASDETKAAEEPSKVEEKKAEEAGASAAACEAPSAAGPGAPPEQEAAPAEEPAAAAASSACAAPSQEAQPECSPEAPPAEAAE
Take B6: under setting [2], the “Fold Change” value is recorded as 3.833 and the “Log (Fold Change)” value amounted to 0.5836.

B7: sp¦P27348¦1433T_HUMAN (protein, UniProt P27348 1-245, looked up)
14-3-3 protein theta: MEKTELIQKAKLAEQAERYDDMATCMKAVTEQGAELSNEERNLLSVAYKNVVGGRRSAWRVISSIEQKTDTSDKKLQLIKDYREKVESELRSICTTVLELLDKYLIANATNPESKVFYLKMKGDYFRYLAEVACGDDRKQTIDNSQGAYQEAFDISKKEMQPTHPIRLGLALNFSVFYYEILNNPELACTLAKTAFDEAIAELDTLNEDSYKDSTLIMQLLRDNLTLWTSDSAGEECDAAEGAEN
For B7, under setting [1], the “Fold Change” value is listed as 1.296 and the “Log (Fold Change)” value is listed as 0.1126.

B8: sp¦Q9Y244¦POMP_HUMAN (protein, UniProt Q9Y244 1-141, looked up)
Proteasome maturation protein: MNARGLGSELKDSIPVTELSASGPFESHDLLRKGFSCVKNELLPSHPLELSEKNFQLNQDKMNFSTLRNIQGLFAPLKLQMEFKAVQQVQRLPFLSSSNLSLDVLRGNDETIGFEDILNDPSQSEVMGEPHLMVEYKLGLL
Turning to B8, under setting [1], the “Fold Change” value is on record as 1.341 and the “Log (Fold Change)” value stood at 0.1275.

B9: sp¦Q16543¦CDC37_HUMAN (protein, UniProt Q16543 1-378, looked up)
Hsp90 co-chaperone Cdc37: MVDYSVWDHIEVSDDEDETHPNIDTASLFRWRHQARVERMEQFQKEKEELDRGCRECKRKVAECQRKLKELEVAEGGKAELERLQAEAQQLRKEERSWEQKLEEMRKKEKSMPWNVDTLSKDGFSKSMVNTKPEKTEEDSEEVREQKHKTFVEKYEKQIKHFGMLRRWDDSQKYLSDNVHLVCEETANYLVIWCIDLEVEEKCALMEQVAHQTIVMQFILELAKSLKVDPRACFRQFFTKIKTADRQYMEGFNDELEAFKERVRGRAKLRIEKAMKEYEEEERKKRLGPGGLDPVEVYESLPEELQKCFDVKDVQMLQDAISKMDPTDAKYHMQRCIDSGLWVPNSKASEAKEGEEAGPGDPLLEAVPKTGDEKDVSV
In the case of B9, under setting [1], the “Fold Change” value stood at 1.314 and the “Log (Fold Change)” value was determined as 0.1187.

B10: Inter-alpha-trypsin inhibitor heavy chain H2 (protein, UniProt P19823 55-702, looked up)
Inter-alpha-trypsin inhibitor …: SLPGESEEMMEEVDQVTLYSYKVQSTITSRMATTMIQSKVVNNSPQPQNVVFDVQIPKGAFISNFSMTVDGKTFRSSIKEKTVGRALYAQARAKGKTAGLVRSSALDMENFRTEVNVLPGAKVQFELHYQEVKWRKLGSYEHRIYLQPGRLAKHLEVDVWVIEPQGLRFLHVPDTFEGHFDGVPVISKGQQKAHVSFKPTVAQQRICPNCRETAVDGELVVLYDVKREEKAGELEVFNGYFVHFFAPDNLDPIPKNILFVIDVSGSMWGVKMKQTVEAMKTILDDLRAEDHFSVIDFNQNIRTWRNDLISATKTQVADAKRYIEKIQPSGGTNINEALLRAIFILNEANNLGLLDPNSVSLIILVSDGDPTVGELKLSKIQKNVKENIQDNISLFSLGMGFDVDYDFLKRLSNENHGIAQRIYGNQDTSSQLKKFYNQVSTPLLRNVQFNYPHTSVTDVTQNNFHNYFGGSEIVVAGKFDPAKLDQIESVITATSANTQLVLETLAQMDDLQDFLSKDKHADPDFTRKLWAYLTINQLLAERSLAPTAAAKRRITRSILQMSLDHHIVTPLTSLVIENEAGDERMLADAPPQDPSCCSGALYYGSKVVPDSTPSWANPSPTPVISMLAQGSQVLESTPPPHVMRVEND
Turning to B10, under setting [2], the “Fold Change” value was determined as 3.859 and the “Log (Fold Change)” value was found to be 0.5865.

Source of the values: article PMC8298264, “Function of cofactor Akirin2 in the regulation of gene expression in model human neutrophil-like HL60 cells” (Bioscience Reports, 2021).
